The numbers were not newly measured in paper PMC6753945, which cites them from elsewhere.

The data set concerns the target CD28 (Homo sapiens) (UniProt P10747).

Broadly, the Kd is a measure of binding affinity in units of concentration. With CD80 (from UniProt P33681), the equilibrium dissociation constant (Kd) is 200 nM.
